B1: PLAGL1 (parent)
chain: TKEKKHQCDHCERCFYTRKDVRRH
B2: ZBED1 (parent)
chain: EQVFSLGDGVSGGFFGIRDSSFL

Variants of: B1
Test: protein stability index of a GFP-peptide fusion (GPS, HEK-293T) (PSI 1-6); higher = more stable
Details: c terminus: a fixed tail appended
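Also: lentivirally expressed fusions sorted by FACS into six bins by GFP to DsRed ratio, PSI derived from sequencing read proportions per bin multiplied by bin number.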

With TKEKKHQCDHCERCFYTRKDVRRN as the variant, how does the protein stability index read?
The protein stability index was 2.89.

For TKEKKHQCDHCERCFYTRKDVRRV, which protein stability index is on record?
Its protein stability index is 3.11.

With TKEKKHQCDHCERCFYTRKDVRRD as the variant, how does the protein stability index read?
The protein stability index was 3.84.

Which protein stability index does the source give for TKEKKHQCDHCERCFYTRKDVRRA here?
The protein stability index was 3.79.

Which protein stability index does the source give for TKEKKHQCDHCERCFYTRKDVRRW here?
Its protein stability index is 3.03.

Which protein stability index does the source give for TKEKKHQCDHCERCFYTRKDVRRE here?
The protein stability index was 4.12.

For TKEKKHQCDHCERCFYTRKDVRRL, which protein stability index is on record?
Its protein stability index is 3.17.

Which protein stability index does the source give for TKEKKHQCDHCERCFYTRKDVRRR here?
The protein stability index was 3.37.

For TKEKKHQCDHCERCFYTRKDERRH, which protein stability index is on record?
Its protein stability index is 3.9.

Which protein stability index does the source give for TKEKKHQCDHCERCFYTRKDHRRH here?
The protein stability index was 3.7.

For TKEKKHQCDHCERCFYTRKDMRRH, which protein stability index is on record?
The protein stability index was 3.52.

With TKEKKHQCDHCERCFYTRKDKRRH as the variant, how does the protein stability index read?
The protein stability index was 3.88.

Which protein stability index does the source give for TKEKKHQCDHCERCFYTRKDGRRH here?
Its protein stability index is 3.65.

With TKEKKHQCDHCERCFYTRKDYRRH as the variant, how does the protein stability index read?
Its protein stability index is 3.98.

With TKEKKHQCDHCERCFYTRKDIRRH as the variant, how does the protein stability index read?
The protein stability index was 3.25.

With TKEKKHQCDHCERCFYTRKDARRH as the variant, how does the protein stability index read?
The protein stability index was 3.68.

Which protein stability index does the source give for TKEKKHQCDHCERCFYTRKDNRRH here?
The protein stability index was 3.54.

Which protein stability index does the source give for TKEKKHQCDHCERCFYTRKDCRRH here?
The protein stability index was 3.85.

With TKEKKHQCDHCERCFYTRKDFRRH as the variant, how does the protein stability index read?
The protein stability index was 3.47.

For TKEKKHQCDHCERCFYTRKDQRRH, which protein stability index is on record?
The protein stability index was 3.25.

With TKEKKHQCDHCERCFYTRKDPRRH as the variant, how does the protein stability index read?
Its protein stability index is 2.97.

For TKEKKHQCDHCERCFYTRKDWRRH, which protein stability index is on record?
Its protein stability index is 3.58.

With TKEKKHQCDHCERCFYTRKDLRRH as the variant, how does the protein stability index read?
The protein stability index was 3.74.

Which protein stability index does the source give for TKEKKHQCDHCERCFYTRKDRRRH here?
Its protein stability index is 3.95.

For TKEKKHQCDHCERCFYTRKDTRRH, which protein stability index is on record?
Its protein stability index is 3.34.

For TKEKKHQCDHCERCFYTRKDDRRH, which protein stability index is on record?
The protein stability index was 3.53.

Which protein stability index does the source give for TKEKKHQCDHCERCFYTRKDSRRH here?
The protein stability index was 3.01.

Variants of: B2
Test: as above
Details: c terminus: native

Which protein stability index does the source give for LQVFSLGDGVSGGFFGIRDSSFL here?
The protein stability index was 2.3.

For PQVFSLGDGVSGGFFGIRDSSFL, which protein stability index is on record?
The protein stability index was 2.64.

With QQVFSLGDGVSGGFFGIRDSSFL as the variant, how does the protein stability index read?
The protein stability index was 2.77.

Which protein stability index does the source give for NQVFSLGDGVSGGFFGIRDSSFL here?
Its protein stability index is 2.99.

With CQVFSLGDGVSGGFFGIRDSSFL as the variant, how does the protein stability index read?
The protein stability index was 1.16.

Which protein stability index does the source give for WQVFSLGDGVSGGFFGIRDSSFL here?
Its protein stability index is 1.62.

For SQVFSLGDGVSGGFFGIRDSSFL, which protein stability index is on record?
Its protein stability index is 2.83.

Which protein stability index does the source give for HQVFSLGDGVSGGFFGIRDSSFL here?
Its protein stability index is 2.45.

For TQVFSLGDGVSGGFFGIRDSSFL, which protein stability index is on record?
The protein stability index was 2.35.

With DQVFSLGDGVSGGFFGIRDSSFL as the variant, how does the protein stability index read?
The protein stability index was 3.69.

For FQVFSLGDGVSGGFFGIRDSSFL, which protein stability index is on record?
Its protein stability index is 2.19.

For KQVFSLGDGVSGGFFGIRDSSFL, which protein stability index is on record?
Its protein stability index is 2.64.

Which protein stability index does the source give for YQVFSLGDGVSGGFFGIRDSSFL here?
The protein stability index was 3.12.

For MQVFSLGDGVSGGFFGIRDSSFL, which protein stability index is on record?
Its protein stability index is 1.89.

With RQVFSLGDGVSGGFFGIRDSSFL as the variant, how does the protein stability index read?
Its protein stability index is 2.06.

For VQVFSLGDGVSGGFFGIRDSSFL, which protein stability index is on record?
The protein stability index was 3.14.

Which protein stability index does the source give for AQVFSLGDGVSGGFFGIRDSSFL here?
Its protein stability index is 2.52.

For GQVFSLGDGVSGGFFGIRDSSFL, which protein stability index is on record?
Its protein stability index is 2.45.

Which protein stability index does the source give for EQVASLGDGVSGGFFGIRDSSFL here?
The protein stability index was 4.22.

With EQVDSLGDGVSGGFFGIRDSSFL as the variant, how does the protein stability index read?
Its protein stability index is 4.38.

For EQVCSLGDGVSGGFFGIRDSSFL, which protein stability index is on record?
The protein stability index was 3.18.

With EQVKSLGDGVSGGFFGIRDSSFL as the variant, how does the protein stability index read?
Its protein stability index is 4.06.

Which protein stability index does the source give for EQVMSLGDGVSGGFFGIRDSSFL here?
The protein stability index was 3.63.

With EQVESLGDGVSGGFFGIRDSSFL as the variant, how does the protein stability index read?
The protein stability index was 4.55.

Which protein stability index does the source give for EQVISLGDGVSGGFFGIRDSSFL here?
The protein stability index was 3.63.

With EQVGSLGDGVSGGFFGIRDSSFL as the variant, how does the protein stability index read?
Its protein stability index is 4.16.

For EQVHSLGDGVSGGFFGIRDSSFL, which protein stability index is on record?
Its protein stability index is 4.16.

With EQVPSLGDGVSGGFFGIRDSSFL as the variant, how does the protein stability index read?
Its protein stability index is 4.11.

Which protein stability index does the source give for EQVLSLGDGVSGGFFGIRDSSFL here?
Its protein stability index is 3.36.

For EQVNSLGDGVSGGFFGIRDSSFL, which protein stability index is on record?
The protein stability index was 4.11.

Which protein stability index does the source give for ECVFSLGDGVSGGFFGIRDSSFL here?
Its protein stability index is 1.96.

For EVVFSLGDGVSGGFFGIRDSSFL, which protein stability index is on record?
The protein stability index was 2.17.

For EGVFSLGDGVSGGFFGIRDSSFL, which protein stability index is on record?
The protein stability index was 3.05.

Which protein stability index does the source give for EDVFSLGDGVSGGFFGIRDSSFL here?
Its protein stability index is 3.7.

For EEVFSLGDGVSGGFFGIRDSSFL, which protein stability index is on record?
The protein stability index was 3.88.

Which protein stability index does the source give for EWVFSLGDGVSGGFFGIRDSSFL here?
The protein stability index was 2.03.

For EAVFSLGDGVSGGFFGIRDSSFL, which protein stability index is on record?
The protein stability index was 2.44.

With EFVFSLGDGVSGGFFGIRDSSFL as the variant, how does the protein stability index read?
The protein stability index was 1.72.

Which protein stability index does the source give for ELVFSLGDGVSGGFFGIRDSSFL here?
The protein stability index was 1.8.

For EKVFSLGDGVSGGFFGIRDSSFL, which protein stability index is on record?
Its protein stability index is 2.74.

For EMVFSLGDGVSGGFFGIRDSSFL, which protein stability index is on record?
The protein stability index was 1.65.

With ESVFSLGDGVSGGFFGIRDSSFL as the variant, how does the protein stability index read?
Its protein stability index is 3.44.

Which protein stability index does the source give for EHVFSLGDGVSGGFFGIRDSSFL here?
Its protein stability index is 3.22.

With ETVFSLGDGVSGGFFGIRDSSFL as the variant, how does the protein stability index read?
The protein stability index was 3.04.

Which protein stability index does the source give for EPVFSLGDGVSGGFFGIRDSSFL here?
The protein stability index was 3.46.

Which protein stability index does the source give for EYVFSLGDGVSGGFFGIRDSSFL here?
The protein stability index was 2.43.

Which protein stability index does the source give for EIVFSLGDGVSGGFFGIRDSSFL here?
The protein stability index was 1.84.

For ENVFSLGDGVSGGFFGIRDSSFL, which protein stability index is on record?
The protein stability index was 2.98.

Which protein stability index does the source give for ERVFSLGDGVSGGFFGIRDSSFL here?
Its protein stability index is 3.

For EQHFSLGDGVSGGFFGIRDSSFL, which protein stability index is on record?
Its protein stability index is 3.99.

Which protein stability index does the source give for EQSFSLGDGVSGGFFGIRDSSFL here?
Its protein stability index is 3.63.

For EQTFSLGDGVSGGFFGIRDSSFL, which protein stability index is on record?
Its protein stability index is 3.6.

For EQFFSLGDGVSGGFFGIRDSSFL, which protein stability index is on record?
Its protein stability index is 2.52.

For EQWFSLGDGVSGGFFGIRDSSFL, which protein stability index is on record?
Its protein stability index is 2.55.

Which protein stability index does the source give for EQIFSLGDGVSGGFFGIRDSSFL here?
Its protein stability index is 2.9.

For EQEFSLGDGVSGGFFGIRDSSFL, which protein stability index is on record?
The protein stability index was 4.17.

With EQPFSLGDGVSGGFFGIRDSSFL as the variant, how does the protein stability index read?
The protein stability index was 4.06.

Which protein stability index does the source give for EQGFSLGDGVSGGFFGIRDSSFL here?
The protein stability index was 4.03.

Which protein stability index does the source give for EQQFSLGDGVSGGFFGIRDSSFL here?
Its protein stability index is 4.23.

Which protein stability index does the source give for EQLFSLGDGVSGGFFGIRDSSFL here?
The protein stability index was 2.91.

Which protein stability index does the source give for EQKFSLGDGVSGGFFGIRDSSFL here?
The protein stability index was 3.7.

For EQCFSLGDGVSGGFFGIRDSSFL, which protein stability index is on record?
Its protein stability index is 2.92.

Which protein stability index does the source give for EQMFSLGDGVSGGFFGIRDSSFL here?
The protein stability index was 3.15.

With EQRFSLGDGVSGGFFGIRDSSFL as the variant, how does the protein stability index read?
Its protein stability index is 3.55.

With EQDFSLGDGVSGGFFGIRDSSFL as the variant, how does the protein stability index read?
Its protein stability index is 4.19.

Which protein stability index does the source give for EQAFSLGDGVSGGFFGIRDSSFL here?
The protein stability index was 4.03.

For EQYFSLGDGVSGGFFGIRDSSFL, which protein stability index is on record?
The protein stability index was 3.01.

Which protein stability index does the source give for EQNFSLGDGVSGGFFGIRDSSFL here?
The protein stability index was 3.82.
